B0 data for 1 substance are collected here from patent publication US20020081623A1.

In the test the target is RANTES/eotaxin binding sites on guinea-pig eosinophils (guinea-pig). The test can be described thus: binding of 0.1 nM 125I-RANTES to 4x10^5 guinea-pig eosinophils without competitor.

In turn, “human RANTES (from UniProt P13501 24-91) (ligand)” came in with a B0 of 14.4%.
